One substance from patent US5824529 can be followed below.

Data set [1] deals with PshAI restriction endonuclease (native) (Plesiomonas shigelloides). Put plainly: cleavage_in_vitro. The settings on record: total activity in Mono Q peak, assayed on lambda DNA.
Data set [2] deals with PshAI restriction endonuclease (recombinant, pPshAIR1, NEB#984) (Plesiomonas shigelloides). Briefly: cleavage_in_vitro. Conditions: crude extract, NEBuffer 2, 30 C, 30 min.

Consider lambda DNA, for which, in data set [1], the activity came to 250000 units. The activity (units/g cells) in data set [2] came to 1e+07.
